Results as given in PMC11724288, “Structural and kinetic insights into tRNA promoter engagement by yeast general transcription factor TFIIIC”.

B1: 85-bp tRNAHis (dsDNA)
DNA 1: TGAAAAGTCGCCATCTTAGTATAGTGGTTAGTACACATCGTTGTGGCCGATGAAACCCTGGTTCGATTCTAGGAGATGGCATTTT
DNA 2: AAAATGCCATCTCCTAGAATCGAACCAGGGTTTCATCGGCCACAACGATGTGTACTAACCACTATACTAAGATGGCGACTTTTCA
B2: mA/B (EMSA) (dsDNA)
DNA 1: TCCATTGAAAAGTCGCCATCTAACTATTGTCGTTAGTACACATCGTTGTGGCCGATGAAACCCTGGTTCGATTCTAGGAGATGGCATTTT
DNA 2: AAAATGCCATCTCCTAGAATCGAACCAGGGTTTCATCGGCCACAACGATGTGTACTAACGACAATAGTTAGATGGCGACTTTTCAATGGA

Columns and labels:
[1] = target: T1, TFIIICΔtail (τ138, τ131, τ95Δtail, τ91, τ60, τ55) (Saccharomyces cerevisiae, UniProt P34111;P33339;P32367;Q06339;Q12308;Q12415 1-1160;1-1025;1-593;1-672;1-588;1-435); assay: filter binding; 150 mM KCl, 4 C, apparent Kd, Hill coefficient 1, N=1; Buffer FB: 20 mM HEPES pH 7.5, 150 mM KCl, 2 mM MgCl2, 5 mM DTT; filter binding 1 h at 4 C; EMSA 20 min RT with 1 ug poly-dI/dC, gel at 4 C; footprint 30 min RT, DNase I 28 C; conditions: protein: recombinant; copies: 1;1;1;1;1;1; blunt
[2] = target: T1, TFIIICΔtail (τ138, τ131, τ95Δtail, τ91, …); assay: EMSA; not significantly changed versus A/B; 100-900 nM protein; Buffer FB: 20 mM HEPES pH 7.5, 150 mM KCl, 2 mM MgCl2, 5 mM DTT; filter binding 1 h at 4 C; EMSA 20 min RT with 1 ug poly-dI/dC, gel at 4 C; footprint 30 min RT, DNase I 28 C; conditions: protein: recombinant; copies: 1;1;1;1;1;1; label: 32P

Binder	Kd [1] [nM]	binding result [2]
B1	30 ± 1	–
B2	–	binds
